Laboratory results reported in the nanobody polyreactivity screen of Harvey et al. (2022).

Experiment: yeast display, Sf9 membrane polyspecificity reagent, FACS + sequencing; frameworks hold sequencing errors
Summary of the method: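 Galactose-induced (36–48 hours) yeast carrying a synthetic nanobody display library were exposed to 10% biotinylated, detergent-solubilized Sf9 membrane reagent at 4 °C for 1 hour. FACS followed streptavidin microbead enrichment, using low and high (top ~1%) gates for expression (anti-HA) and reagent binding (streptavidin). Colony PCR, MiSeq 2 × 250 sequencing and CDR-length filtering followed. Labels for polyreactivity reflect the gate of origin.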

| Sequence | polyreactivity (PSR sort gate) |
| --- | --- |
| QVQLVESGGGLVQAGGSLRLSCAASGSISDTYGLGWYRQAPGKERELVASITWSSGSTDYADSVKGRFTISRDNAKNTVYLQMNSLKPEDTAVYYCATYEPFYSFFFRGIYDYWGQGTQVTVSS | low polyreactivity |
| QVQLVESGGGLVQAGGSLRLSCAASGSISDVYAMGWYRQAPGKERELVAAITSGASTYYADSVKGRFTISRDNAKNTVYLQMNSLKPEDTAVYYCAADSDSQWGMDYWGQGTQVTVSS | low polyreactivity |
| QVQLVESGGGLVQAGGSLRLSCAASGSISFINAMGWYRQAPGKERELVAAISGSGGSTYYADSVKGRFTISRDNAKNTVYLQMNSLKPEDTAVYYCAADYRIHWYIAYGYWGQGTQVTVSS | low polyreactivity |
| QVQLVESGGGLVQAGGSLRLSCAASGSISFSNAMGWYRQAPGKERELVAAISWSGGRTYYADSVKGRCTISRDNAKNTVYLQMNSLKPEDTAVYYCAADDFRYGRQVLGLNDYNYWGLGTQVTVSS | low polyreactivity |
| QVQLVESGGGLVQAGGSLRLSCAASGSISGWYAMGWYRQAPGKERELVADISSIAGSTYYADSVKGRFTISRDNAKNTVYLQMNSLKPEDTAVYYCAADDAAWPYSWWGFDYWGQGTQVTVSS | low polyreactivity |
| QVQLVESGGGLVQAGGSLRLSCAASGSISGYYAMGWYRQAPGKESELVASIRYTGARTYYADSVKGRFTISRDNAKNTVYLQMNSLKPEDTAVYYCAADVKRDRVWGGDYWGQGTQVTVSS | low polyreactivity |
| QVQLVESGGGLVQAGGSLRLSCAASGSISGYYDMGWYRQAPGKEREFVAAISLSTTSTYYADSVKGRFTISRDNAKNTVYLQMNSLKPEDTAVYYCATDIVGPHFDYWGQGTQVTVSS | low polyreactivity |
| QVQLVESGGGLVQAGGSLRLSCAASGSISGYYDMGWYRQAPGKERELVAASSWNGADTYYADSVKGRFTISRDNAKNTVYLQMNSLKPEDTAVYYCAAERENGDHYRYYYWGQGTQVNVSS | low polyreactivity |
| QVQLVESGGGLVQAGGSLRLSCAASGSISIKNAMGWYSQAPGKERELVATITYNGGSTYYADSVKGRFTISRDNAKNTVYLQMNSLKPEDTAVYYCSAGYLYYAEYDYWGQGTQVTVSS | low polyreactivity |
| QVQLVESGGGLVQAGGSLRLSCAASGSISKGYAMGWYRQAPGKERELVARISGDGGSTYYADSVKGRFTISRDNAKNTVYLQMNSLKPEDTAVYYCNARAYYGIRYYSWGQGTQVTVSS | high polyreactivity |
| QVQLVESGGGLVQAGGSLRLSCAASGSISKINAMGWYRQAPGKERELVAAINTGDSTYYADSVKGRFTISRDNAKNTVYLQMNCLKPEDTAVYYCAAEGSPTGYDYWGQGTQVTVSS | low polyreactivity |
| QVQLVESGGGLVQAGGSLRLSCAASGSISLAYAMGWYRQAPGKERELVAAISFRTGRTFYADSVKGRFTISRDNAKNTVYLQMNSLKPEDTAVYYCAAENLDFYFEEYWGQGTQVTVSS | high polyreactivity |
| QVQLVESGGGLVQAGGSLRLSCAASGSISPQNVMGWYRQAPGKERELVAAITGGGSTNYADSVKGRFTISRDNAKQTVYLQLNSLKPEDTAVYYCNADYFQDRLDYWGQGTQVTVSS | low polyreactivity |
| QVQLVESGGGLVQAGGSLRLSCAASGSISRFNTMGWYRQAPGKERELVAAITVSGGSTYYADSVKGRFTISRDNAKNTVYLQMNSLKPEDTAVYYCAKEAWRYRLNFRYNYWGQGTQVTVSS | low polyreactivity |
| QVQLVESGGGLVQAGGSLRLSCAASGSISSKNAMGWYRQPPGKERQFDAVISGTGGSTYYADSVKGRFTISRDNAKNTVYLQMNSLKPEDTAVYYCAAAASSIVSYGYTWTYGYWGLGTQVTVSS | low polyreactivity |
| QVQLVESGGGLVQAGGSLRLSCAASGSISTNYAMGWYRQAPGKERELVAAISSSGGSTYYADSVKGRFTISRDNAKNTVYLQMNSLKPEDTAVYYCRYKFGYWGQGTQVTVSS | high polyreactivity |
| QVQLVESGGGLVQAGGSLRLSCAASGSISVYNAMGWYRQAPGKVRELVAAISWSGGRTSYADSVKGRFTISRDHAKNTVYLQMNSLKPEDTAVYYCAADELTGLWDEDYWGPGTQVTVSS | low polyreactivity |
